# Patent publication US9193963B2, “Mutant endoglucanase” (Toray Industries, Inc., priority 2011, dated 2015)
# B1: EGPa Wild-type: Pyrococcus abyssi-derived endoglucanase, SEQ ID NO: 25, parent endoglucanase (protein)
# chain: MEIKLFCVFIVFIILFSPFVIALSYPDVNYTAENGIIFVQNVTTGEKKPLYLHGVSWFGFELKDHVVYGLDKRNWKDILKDVKRLGFNAIRLPFCSESIRPDTRPSPERINYELNPDLKNLTSLEIMEKIIEYANSIGLYILLDYHRIGCEEIEPLWYTENYSEEQYIKDWIFLAKRFGKYPNVIGADIKNEPHGEAGWGTGDERDFRLFAEKVGREILKVAPHWLIFVEGTQYTHVPNIDEIIEKKGWWTFWGENLMGVKDYPVRLPRGKVVYSPHVYGPSVYMMDYFKSPDFPNNMPIIWETHFGYLTDLNYTLVIGEWGGNYEGLDKVWQDAFVKWLIKKKIYNFFYWCLNPESGDTGGIFLDDWKTVNWEKMRVIYRLIKAANPEFEEPLYIILKTNATTSILGVGERIRIYWYTNGKVIDSNFAHSSEGEMNITVTKSMTLYIIVKKGNQTLRKELKLYVIGGNYGSNISTTQLVTPKKGGERISTSLKLAISLLFILLFVWYLLREKH
# modifications: Pyrococcus abyssi EGPa
# B2: EGPa Mutant: mutant EGPa, SEQ ID NO: 26; residue corresponding to 273rd tryptophan substituted with alanine (protein)
# chain: MEIKLFCVFIVFIILFSPFVIALSYPDVNYTAENGIIFVQNVTTGEKKPLYLHGVSWFGFELKDHVVYGLDKRNWKDILKDVKRLGFNAIRLPFCSESIRPDTRPSPERINYELNPDLKNLTSLEIMEKIIEYANSIGLYILLDYHRIGCEEIEPLWYTENYSEEQYIKDWIFLAKRFGKYPNVIGADIKNEPHGEAGWGTGDERDFRLFAEKVGREILKVAPHWLIFVEGTQYTHVPNIDEIIEKKGWWTFAGENLMGVKDYPVRLPRGKVVYSPHVYGPSVYMMDYFKSPDFPNNMPIIWETHFGYLTDLNYTLVIGEWGGNYEGLDKVWQDAFVKWLIKKKIYNFFYWCLNPESGDTGGIFLDDWKTVNWEKMRVIYRLIKAANPEFEEPLYIILKTNATTSILGVGERIRIYWYTNGKVIDSNFAHSSEGEMNITVTKSMTLYIIVKKGNQTLRKELKLYVIGGNYGSNISTTQLVTPKKGGERISTSLKLAISLLFILLFVWYLLREKH
# modifications: Pyrococcus abyssi EGPa W253A
# notes: residue corresponding to 273rd tryptophan substituted with alanine
# B3: EGAc Wild-type: Acidthermus cellulolyticus-derived endoglucanase, SEQ ID NO: 31, parent endoglucanase (protein)
# chain: MPRALRRVPGSRVMLRVGVVVAVLALVAALANLAVPRPARAAGGGYWHTSGREILDANNVPVRIAGINWFGFETCNYVVHGLWSRDYRSMLDQIKSLGYNTIRLPYSDDILKPGTMPNSINFYQMNQDLQGLTSLQVMDKIVAYAGQIGLRIILDRHRPDCSGQSALWYTSSVSEATWISDLQALAQRYKGNPTVVGFDLHNEPHDPACWGCGDPSIDWRLAAERAGNAVLSVNPNLLIFVEGVQSYNGDSYWWGGNLQGAGQYPVVLNVPNRLVYSAHDYATSVYPQTWFSDPTFPNNMPGIWNKNWGYLFNQNIAPVWLGEFGTTLQSTTDQTWLKTLVQYLRPTAQYGADSFQWTFWSWNPDSGDTGGILKDDWQTVDTVKDGYLAPIKSSIFDPVGASASPSSQPSPSVSPSPSPSPSASRTPTPTPTPTASPTPTLTPTATPTPTASPTPSPTAASGARCTASYQVNSDWGNGFTVTVAVTNSGSVATKTWTVSWTFGGNQTITNSWNAAVTQNGQSVTARNMSYNNVIQPGQNTTFGFQASYTGSNAAPTVACAAS
# modifications: Acidthermus cellulolyticus EGAc
# Legend:
# [1] = Activity to degrade phosphoric acid swollen cellulose; format: biochemical; conditions: 1% phosphoric acid swollen cellulose, pH 5.2, enzyme 0.5 μM, 1 hour, 50° C.; glucose generated by each parent endoglucanase = 100%
# Procedure: The term “identity” refers to the percentage of amino acid residues identical to and amino acid residues analogous to the other amino acid residues in all the amino acid residues overlapped when an optimum alignment is performed by introducing gaps or no gaps into two amino acid sequences and then aligning the two amino acid sequences. Such an identity can be found using a method known by persons skilled in the art, sequence analysis software, and the like (a known algorithm such as BLAST or FASTA). The term “endoglucanase activity” is as defined above and can be determined by adding an enzyme solution to a substrate solution of phosphoric acid swollen cellulose that has been dissolved in 50 mM acetic acid-sodium acetate buffer (pH 5.2) or the like, performing 1 hour of reaction at 30° C. to 85° C., stopping the reaction by changing the pH if necessary, and then determining the concentration of glucose in the reaction solution using a glucose determination kit, for example.
# The mutants obtained in Comparative Example 1 were compared in terms of activity by a technique similar to that in Example 3. The concentration (g/L) of glucose generated by each parent endoglucanase under the above reaction conditions was determined to be 100%.
# [2] = Inhibition experiment with vanillin: degradation of phosphoric acid swollen cellulose; format: biochemical; conditions: enzyme 0.5 μM, 1 hour, 50° C., parent at 0 mM = 100%
# Procedure: (§6) This substance was diluted using buffer and water to obtain a 2 wt % mixture so that the final concentration of sodium acetate was 50 mM (pH 5.2). This was designated as phosphoric acid swollen cellulose and used for the following examples.
# The activity of the wild-type and the mutant endoglucanases to degrade phosphoric acid swollen cellulose in the presence of vanillin was measured. 1% phosphoric acid swollen cellulose/50 mM acetate buffer (pH 5.2) was used as a substrate. Vanillin (Sigma Aldrich) was added at final concentrations of 0, 5, 10, and 15 mM. The enzymes prepared in Reference Example 1 and Example 2 were added at a final concentration of 0.5 μM, followed by 1 hour of enzymatic reaction at 50° C.
# [3] = Inhibition experiment with ferulic acid: degradation of phosphoric acid swollen cellulose; format: biochemical; conditions: enzyme 0.5 μM, 1 hour, 50° C., parent at 0 mM = 100%
# Procedure: as §6
# The activity of the wild-type and the mutant endoglucanases to degrade phosphoric acid swollen cellulose was measured in the presence of ferulic acid. 1% phosphoric acid swollen cellulose/50 mM acetate buffer (pH 5.2) was used as a substrate. Ferulic acid (Sigma Aldrich) was added at final concentrations of 0, 5, 10, and 15 mM. The enzymes prepared in Reference Example 1 and Example 2 were each added at a final concentration of 0.5 μM, followed by 1 hour of enzymatic reaction at 50° C.
# [4] = Saccharification of lignocellulose 1 with Celluclast and endoglucanase; format: biochemical, Rice straw; conditions: 5 wt % Lignocellulose 1, pH 5.2, 50° C., 24 hours; 1.0 mg/mL cellulase + 0.1 mg/mL endoglucanase
# Procedure: (§1) Rice straw was used as cellulose. The cellulose was added to a small reactor (Taiatsu Techno Corporation, TVS-N2 (30 ml)), and then cooled with liquid nitrogen. An ammonia gas was fed to the reactor, thereby completely immersing the sample in the liquid ammonia. The reactor was closed using its lid, and then left to stand at room temperature for 15 minutes. Subsequently, treatment was performed for 1 hour in an oil bath at 150° C. After treatment, the reactor was removed from the oil bath, an ammonia gas leak was immediately performed within a draft chamber. The reactor was vacuumed using a vacuum pump to 10 Pa for drying. The resultant was used as lignocellulose 1 in the following examples.
# (§2) The changes in the amount of glucose generated when the enzyme composition had been caused to act on lignocellulose substrates were compared. The substrates were prepared by suspending 5 wt % lignocelluloses (1 to 3) (prepared in Reference Example 3) in 50 mM acetate buffer (pH5.2). Reactions were performed at 50° C. for 24 hours. The concentrations of the generated glucose were measured after adequate sampling. As a filamentous bacterium-derived cellulase mixture, commercially available Trichoderma reesei-derived cellulase (Celluclast, Sigma) was used. As endoglucanases, the mutant endoglucanases prepared in Example 2 and the wild-type endoglucanases prepared in Reference Example 1 were separately used. The following quantities of enzymes were added: 1.0 mg/mL cellulase, and 0.1 mg/mL endoglucanase (in an amount one tenth that of the cellulase).
# [5] = Saccharification of lignocellulose 2 with Celluclast and endoglucanase; format: biochemical, Rice straw; conditions: 5 wt % Lignocellulose 2, pH 5.2, 50° C., 24 hours; 1.0 mg/mL cellulase + 0.1 mg/mL endoglucanase
# Procedure: (§3) Rice straw was used as cellulose. Cellulose was immersed in a 1% aqueous sulfuric acid solution, and then autoclaved for 30 minutes at 150° C. (Nitto Koatsu Co. Ltd.). After treatment, the resultant was subjected to solid-liquid separation into an aqueous sulfuric acid solution (hereinafter, referred to as “dilute-sulfuric-acid-treated solution”) and cellulose treated with sulfuric acid. Next, the cellulose treated with sulfuric acid was mixed and agitated with the dilute-sulfuric-acid-treated solution so that the solid content concentration was 10 wt %. Then the mixture was adjusted to around pH 5 using sodium hydroxide. The resultant was used as lignocellulose 2 for the following examples.
# as §2
# [6] = Saccharification of lignocellulose 3 with Celluclast and endoglucanase; format: biochemical, Rice straw; conditions: 5 wt % Lignocellulose 3, pH 5.2, 50° C., 24 hours; 1.0 mg/mL cellulase + 0.1 mg/mL endoglucanase
# Procedure: (§4) Rice straw was used as cellulose. The cellulose was immersed in water, and then autoclaved with agitation at 180° C. for 20 minutes (Nitto Koatsu Co. Ltd.). Pressure at this time was 10 MPa. After treatment, a solution component (hereinafter, referred to as “hydrothermally treated solution”) and the treated biomass component were subjected to solid-liquid separation by centrifugation (3000 G). The thus treated biomass component was used as lignocellulose 3 for the following examples.
# as §2
# [7] = Saccharification of lignocellulose 1 with Trichoderma reesei culture solution and endoglucanase; format: biochemical, Rice straw; conditions: Lignocellulose 1, 24 hours; cellulase 1.0 mg/mL + endoglucanase 0.1 mg/mL + β-glucosidase (Novozyme 188) 0.01 mg/mL
# Procedure: as §1, §2
# (§5) Lignocelluloses (1-3) prepared in Reference Example 3 were used as substrates. The Trichoderma reesei culture solution prepared in Reference Example 4 was used as a filamentous bacterium-derived cellulase mixture. Lignocelluloses (1-3) were hydrolyzed in a manner similar to that in Example 7, except for the quantities of the enzymes added: cellulase (1.0 mg/mL); endoglucanase (0.1 mg/mL (in an amount one tenth that of the cellulase); and β-glucosidase (Novozyme 188) (0.01 mg/mL (in an amount one hundredth that of the cellulase).
# [8] = Saccharification of lignocellulose 2 with Trichoderma reesei culture solution and endoglucanase; format: biochemical, Rice straw; conditions: Lignocellulose 2, 24 hours; cellulase 1.0 mg/mL + endoglucanase 0.1 mg/mL + β-glucosidase (Novozyme 188) 0.01 mg/mL
# Procedure: as §3, §2, §5
# [9] = Saccharification of lignocellulose 3 with Trichoderma reesei culture solution and endoglucanase; format: biochemical, Rice straw; conditions: Lignocellulose 3, 24 hours; cellulase 1.0 mg/mL + endoglucanase 0.1 mg/mL + β-glucosidase (Novozyme 188) 0.01 mg/mL
# Procedure: as §4, §2, §5
Molecule,Relative activity [1],Relative activity to degrade phosphoric acid swollen cellulose ([2]; vanillin 0 mM),Relative activity to degrade phosphoric acid swollen cellulose ([2]; vanillin 5 mM),Relative activity to degrade phosphoric acid swollen cellulose ([2]; vanillin 10 mM),Relative activity to degrade phosphoric acid swollen cellulose ([2]; vanillin 15 mM),Relative activity to degrade phosphoric acid swollen cellulose ([3]; ferulic acid 0 mM),Relative activity to degrade phosphoric acid swollen cellulose ([3]; ferulic acid 5 mM),Relative activity to degrade phosphoric acid swollen cellulose ([3]; ferulic acid 10 mM),Relative activity to degrade phosphoric acid swollen cellulose ([3]; ferulic acid 15 mM),"Concentration of glucose generated, Celluclast + Wild-type [4]","Concentration of glucose generated, Celluclast + Wild-type [5]","Concentration of glucose generated, Celluclast + Wild-type [6]","Concentration of glucose generated, Culture solution + Wild-type [7]","Concentration of glucose generated, Culture solution + Wild-type [8]","Concentration of glucose generated, Culture solution + Wild-type [9]",also measured
B1,100%,100%,40%,40%,40%,100%,60%,50%,50%,12 g/L,12 g/L,11 g/L,9 g/L,9 g/L,8 g/L,
B2,100%,100%,90%,90%,90%,100%,95%,90%,90%,,,,,,,"Concentration of glucose generated, Celluclast + Mutant [4]: 14 g/L; Concentration of glucose generated, Celluclast + Mutant [5]: 16 g/L; Concentration of glucose generated, Celluclast + Mutant [6]: 15 g/L; Concentration of glucose generated, Culture solution + Mutant [7]: 11 g/L; Concentration of glucose generated, Culture solution + Mutant [8]: 13 g/L; Concentration of glucose generated, Culture solution + Mutant [9]: 12 g/L"
B3,100%,100%,50%,45%,40%,100%,65%,60%,55%,11 g/L,11 g/L,11 g/L,8 g/L,8 g/L,8 g/L,
